Results from the DeepSol protein solubility set.

Test: soluble on expression in E. coli; label from the status in PepcDB or PDB records

Sequence	soluble on expression in E. coli
MGSDKIHHHHHHMFSDMTLLQYINSEDRGFFLPDMGTNGLFLINKKAYEVYDSVDLQLELAKTMDKYFESDFIYSFCDGITFCETLGLETLRPDYDFPSVLTHTITDRDKLRKLDVPDPYTSGRMPLNIESLSVISKSIKKPLYESIQGPFTLAGQLAGATQLLRCIITDKKFVEELLEFTTELVRRYAVAANKAGAKYISIAEPTSVTLSKDRFDEFIVKNLNKIYNELDCWKGMHICGDTRELLDNMLSCNIDAVSLDQILDYEEIAPMIPRDIVLIGNLDPIKLLGRSKPDKIRRETLKLLKKMRRYDNFLCDFGCNCLNTTPVENLQAAIKAGRISYKELDRIDIDEL	not soluble
MGSDKIHHHHHHMFSIGKHSDFTPSCVSRMLGDLHFVNQGTAMKFSRYFFSLLTTLPLLACTQVEAPVPEALSQSTGHTAGAAQPQESVIGGSLPIGDSSRTSLDWQGSYEGVVPCASCEGIKTRLTLNNDGTYLLQSQYLGKEQDGKEPKVFEEQGKFSWNASGGAIQLENGAWYQVGENQLFMLDREGKRITGVLAGHYRLLKKQSALLPRF	not soluble
MGSDKIHHHHHHMFSISHPGDFESLKIIVNEINKLRKINKKLKKESFEVYVGFPEFVGTGRATLYKPNFEDLAKQVNYAKKHNVRFEVVINASCIGGMHLTPKGISYINWIFSQLKNIGVDSVALSDPYLVDLAKNNGLEVNVSCIALVDSLDKALFWDEKEVYAITLDSSINRHFDIIQEIRENVSCKLKILVNEACLYKCPMRIQHFNFFSHANAQNIPALDDYYYNKCINLRIKKKELIIKSPFIRPEDLKYYKGLVDIFKISGRSHPIGWIKRVINAYLNERWDGNLMELLDCPRELEHFYYLDNRALDGAIEYWKSCNKLCSKCNFCKELAEKALKVKY	not soluble
MGSDKIHHHHHHMFSVEQLQAFITTVETGSFSAAARRLNKVQSVVSQHVINLEVDCNILLFDRSGRYPALTEAGEKLLPHAQAVIDQHQRLKNSALSLTDNTPKEITIALDEGISFKLISGIISNLQNEFPNITLEFLSASSPDIIDMLKNEKALTGIVFSELTIPSYLDFECIGSIKFDLYVAKSHPLANQVCKNIDSLRLHRQLLIRSRNTQSSSFQLKLSPNVWYADNYFLLLELALQGNGWCLLPNHIANESVESGQLVKLPLEFEEMGWQANVDVVQHQRHSNLAVFKVLRLLLRNLL	not soluble
MGSDKIHHHHHHMGAMRPNQTFSHKAAVKLRSVEFLQYAGVTKFHDVILTSLVDINIGIGKRGSAQIKLPYTCVSGSLANTSGTADISLAYTHAVLVKDTYQLLGTLGGKLPTNNADKLSSDGRPLPMYYQTSLGTNDLVVGLSFITRKWLLATGYQHAFNQIGNDFRWSEWNSSAQRTEALEYPPSWNLKRGSDVMFRIERNFRSTKWNAYLGLLTIYRITPDQVSKGTSENRVEVPNTTGPAITALSGAGYRFSTAVALKAMVGVKIINRDTNPDGLSREFVSSLSVEIRL	not soluble
MGSDKIHHHHHHMGARLKHYGWGREGEGMNEAEQAFVLGRYKAKFGRDSFDTVEVAHLDDIKLREPRIVPPKSLSEICAVDVYHRAAHAYGKSYPDYVRGMLGDYDAAPDVVAYPRDEAEIAAVMDWAGGAGAALTPFGGGSSVCGGVECRVDGNRHKAAVTLDLRHLGKVLEVDATSRAALIQGGAYGPALEAQLKPHNVTLRHFPQSFEYSTLGGWIATRSGGHYASLYTHIDDFVESVRVVTPRGVLETRRLPGSGAGPSPDRMFIGSEGILGVISAAWMRLQSRPRFRAGASVRFPSFFAAARAVRAVAQAGLYPSNCRILDPQEAYNTGAADGSVAIMVLAFESGDHPVEPWMARALECCADHGGIREEAEASSGHLEGAAGLWRNAFIRMPYAREFLTPAGLINDTFETSITWERFESFHDSVKTVTEQAILDATGIKGEVTCRFTHVYPDGPAPYFSFHALGRHGELLEQWQAIKDAASDALIAAGGTITHHHAVGRDHRKWYDRQRPDLFAVALRAAKRELDPQAMLNPGVLIDP	not soluble
MGSDKIHHHHHHMGDVTVKDYKGGTIEDPEELKSNQTILTIDQAKYFNFKVDDVDKAQSNILLVDKGMGRASYAVQDVIDKFIAALVKDAKIKIGSTSKPIEITVANAYDTLVDLGVELDNKNVPRVGRFAILPPFYLGLLSKDPRFTKDFKILENGVVEGATVSGFKLMMSNNVPFSANNYSIMAGTDMAISYAGQVTEIEAYRPEKSFSDAMKGLYVFGAKVVQPDCLACLTVKQKVAEV	not soluble
MGSDKIHHHHHHMGHDLPPLPSRDVHAVRWYVLSLPACHKGPAKGLKKELDRRVRLGEPTFDFFAPSFVEMRRREGHLVETHRPLLYNYVFIRSSVYEIFRLKRDFPLYNFLPSVDGRGSYPFVSDREMENLRWVARSYSDELPVYVPEAGYLRKGDRIRITDGRFKGVEASVVIQPGVGEREVMVCVDNWMWVPLLRVQPGEYEVISLAEEGKHVYTRLDNSRIQNGLHEALGRHWGSCGVTAADRELAAETLRTYGELQLDSAVMRCKLYSLLLPAYTILGDEERQKSLIGTIVSFLSLIRAEQSLALLLLTLYGCTDSSIYYYRAHELIDPWSRESSPKKSKLSLIRRLADYDRWLKHNE	not soluble
MGSDKIHHHHHHMGIENMKICIVSFTKKGYELSCDIAYKLEKSAYEVEVFTKCSRLSDENIKNSTDENYRNTGYISQNISDWTAAQMSEKKALIFIGACGIAVRAIASSVNNKLKDSPVIVIDELGKFVIPILSGHVGGANEFAVLLAALMNATPVITTATDINNKFAVDVFAKKCRLAIVNKDGIARVSSKVLAGEVVTMSVDWEHIPAKHRSLIKAFLDKADMSADAIKTVDFPPAYGADIVVSCEKEKDTKNGSIYLKPTQFVLGIGCRRDTAFENIDRAIRQSLLKLQIDISDIDMIASIDVKKDEPGIKEFCERNRIEFVTYTADELMAVQGEFSASQFVREHVGVDNVCERAAVLACSRECDKAGELIYKKHKYDRVTVAAARYPD	not soluble
MGSDKIHHHHHHMGKFLVEREQMRYPVDVYTGKIQAYPEGKPSAIAKIQVDGELMLTELGLEGDEQAEKKVHGGPDRALCHYPREHYLYWAREFPEQAELFVAPAFGENLSTDGLTESNVYMGDIFRWGEALIQVSQPRSPCYKLNYHFDISDIAQLMQNTGKVGWLYSVIAPGKVSADAPLELVSRVSDVTVQEAAAIAWHMPFDDDQYHRLLSAAGLSKSWTRTMQKRRLSGKIEDFSRRLWGK	not soluble
MGSDKIHHHHHHMGKPRIVILGGGFGGLYTARALHRTFRDTAEIEVITAENYFVFQPLLPEVGAGSVTPIHATSPYRFLLKGVGIRKAMIDSVDFAAKRVTVFQGVQRRPTEVPYDHLVVALGQTVDLSRTPGLEAHALTMKTLEDARRLRAHVIERLEHADITNLPEVKRGALTFTVIGGGFSGIETVGEMAELIDRSLKYYPNVSRDEVRIIVLEFADKVLAEMPEKLRAYAQAQLEKRGVEVCLNTGIASATGTQITTTDGDVIDTRTVVATIGNAPAPVVKRMDLPLTQGRIAVERDLSVPGRDGVWSLGDCALIPMVEDANAREDYAPPTAQFAVREAKQLAANIKRAVDGTALKPFEYTSKGSMASLGARRGIADVMGIRLTGFLAWVLWRAYYVAFLPGFPAKVWVLSHWVLDWVTPRSLVNLSSPKTDASRHIRYAKGDRIYETGNRADTFFTIIEGAVEITNAKGHDGQPTTRRIEPGGHFGERLILGATRRVATARALEDTVVLAMGRDEFLKLTRALPALRDYFEAHLAEKGLDWAPEPDERRDAAE	not soluble
MGSDKIHHHHHHMGLGHEQGFGAPCLKCKENCEGFELHFWRKICRNCKCGQEEHDVLLSNEEDRKVGRLFEDTKYTTLIAKLKSDGIPMYKRNVMILTNPVAAKKNVSINTVTYEWAPPVQNQALARQYMQMLPKEKQPVAGSEGAQYRKKQLAKQLPAHDQDPSKCHELSPKEVKEMEQFVKKYKSEALGVGDVKFPSEMNAQGDKVHNPAGDRHAPAAVASKDKSAESKKTQYSCYCCKHTMNEGEPAIYAERAGYDKLWHPACFICSTCGELLVDMIYFWKNGKLYCGRHYCDSEKPRCAGCDELIFSNEYTQAENQNWHLKHFCCFDCDHILAGKIYVMVTDKPVCKPCYVKNHAVVCQGCHNAIDPEVQRVTYNNFSWHASTECFLCSCCSKCLIGQKFMPVEGMVFCSVECKRMMS	soluble
MGSDKIHHHHHHMGNYQHPGIYVQEIAIAPNIEPVAACLPLFIGHTEKSQDANGHPLPLGKRYSVSSLAEYEEHFGKGAPETLRVLLDGKGNIVNAHSYSPFYLYAAVHQYFANGGGQCEILSVGPYSRAPDASALKAAIRALPLNAAFTLVAIPDAVSLAELPQLQRKLLQYCAQQDYCLAILDVPYCNDQTREMTVNTFRHDIGQRGLQHGAAFMPWLETAAAGISGYVDLEIKYTPGVATAWNDFHKATKLQSHLLHKQLEASPAIRFNRMLPPSGSIMALFEANARKRNIWTTPNHTPIKEIISLSATIDNIIQESLNIHPTGKSINAIRRFDNALLMWGGHTLASNDSEWRYIAHLLTRGFVQASLRRFLDQQTFEKNDEATWSLVGHQCQDFLHTLWREGALVGDKPEQAFYVRIGLNQTMSTQDIAAGRIIVHVGIALLRPAEFIILKLHKVISAPDLKPAITRPGKPVNRVKIRAKTSPINVVIRQRQQPSPPSKPLPSEPVS	not soluble
MGSDKIHHHHHHMGRAPTMEADMRILLLCWRDTTHPQGGGSERYLEHIAKYLVASGHEVIFRTARHTDASRRAVRDGVEYQYAGGKYSVYVRAAVAQLMGRLGVGRLRGVDVAVDTQNGIPFFARVFSGVPTILLTHHCHRRQWDVAGPLIARLGWFIESKVSPWVHRGVRYVTVSEPSRDELVELGVPAGNITIVRNGIDDPPAPMNLPPVTRPHLVTLSRLVPHKQIEHAIDVVRELDGVVLDIIGSGWWEPQLREYARDVADRVIFHGQVAEDHKHALLAQAAVHVMPSRKEGWGLAVIEAGQHGVPTVGYSHSGGLRDSVRGGGVLVETPAQLTCAIRQLLADQRYRDELGRRAYGFASTFSWEDTGREFLRVIAQPQIPAAAHSTKQPNPR	not soluble
MGSDKIHHHHHHMGTKKNFVLDTNVILHDYNCLKNFQENDIYLPIVVLEELDKFKKGNEQINYNAREFVRELDLITDDSLFTHGAPLGEGLGKLFIVTGDSEAPKVHESFPARKPDHQILAVAEYLARKYPKMKNILVTKDVNLRMKARSIGILCEDYITDKVVNVDIFEKSNEVFENIEPDLIDRIYSSREGLDISEFDFKDIIRPNECFILKSDRSSVLARYNPFTHTVCRVNKTKNYGIEPRNAEQSFAFEILNDPDIKLVALTGKAGTGKTLLALAAALGKLTEYKQILLARPIVALSNKDLGFLPGDATEKVAPYMQPLFDNLNVIKRQFASNSTEVKRLEDMQKSEQLVIEALAFIRGRSLSETYCIIDEAQNLTPHEIKTIITRAGEGTKMVFTGDIQQIDQPYLDSQSNGLVYMIDRMKDQNLFAHVNLVKGERSELSELASNLM	not soluble
MGSDKIHHHHHHMHFYRSLGPIRAITFDLDDTLYDNADVIRRTGQESIRFLQEYHPALRDFQADDFQNLRQTLLEREPDIYHDVTEWRRRAVELAMLDRGLSAAESKDGAKAAMENFAHWRSQIAITEETHQTLAALAEKVPLAAITNGNAEPHRFGLERYFSFILRAGPHGRAKPFDDMYHLAAEKLNLPLHEILHVGDDLTTDVAGSIRCGMQACWINLREGSLTQIGDARLLPHIEISRLASLSALL	not soluble
MGSDKIHHHHHHMHHSHHLEIYEKLREKLNKAPIGLPKTVSGVEKELLSVLFDEEEAKIAVHMPFIRFTAEQLAERTGKSLEYVEKILNEMAKKGTVWKGEKDGQTYYRLFPVIVGFAETPFWPGPGKDPRQEKLARLWSQYRKEGFLDEIGDREHPIMRALPERDTISEKSEILPYEDAVKLVKERDYIAVGYCPCRVMARLVGEGCRHSIENCIHMGSVGKYMVEHGLGRRISADEAIEILRQSNREGLVHLTERSKHVATICNCCSDCCVFFKAVHEAKHPNTIAHSSYLATVDTSRCIACGICMLRCPMKAIKAKINREPASVDAEKCLGCGVCVPTCPMEAIELVERDELLELPDGMTYVQELLADKGRDPSGLF	not soluble
